Laboratory results: US5985836A, “Alpha-1 proteinase inhibitor binding peptides” (Bayer Corporation, priority 1998, dated 1999)
Blank lines part the entries; values can stand above or below the substance they belong to. Ends that are not written are not given here.

Assays:
A1PI [1] = target: T1, A1PI (Homo sapiens, UniProt P01009); experiment: A1PI binding on peptide-resin column, injection of 1 mg A1PI in equilibration buffer; conditions: for % of Total A1PI Eluted by Fraction (Based on Absorbance at 280 nm), 1M NaCl / % of Total A1PI Eluted by Fraction (Based on Absorbance at 280 nm), 2% Acetic Acid / % of Total A1PI Eluted by Fraction (Based on Absorbance at 280 nm), Flowthrough: 1 mg A1PI; for Percent A1PI Eluted by Fraction Based on Absorbance at 280 nm, 1M NaCl / Percent A1PI Eluted by Fraction Based on Absorbance at 280 nm, 2% Acetic Acid / Percent A1PI Eluted by Fraction Based on Absorbance at 280 nm, Flowthrough / Percent A1PI Eluted by Fraction, 1M NaCl / Percent A1PI Eluted by Fraction, 2% Acetic Acid / Percent A1PI Eluted by Fraction, Flowthrough: 1 mg A1PI in equilibration buffer
T1 construct: Human plasma is currently the only approved source of therapeutic AlPI
Experimental: (§1) Confirmatory binding assays were performed in a column chromatographic format on a microbore HPLC using individual peptide sequences synthesized directly onto the Toyopearl 650 M Chelate resin which had been modified with Totda followed by an alanine residue (A-Totda-Toyopearl), at a final substitution density of 0.1 mmole/g resin. The resin was packed into 0.4×5 cm columns (Thomson, Springfield, Va.) and tested on the Michrom HPLC system (Michrom BioResources, Auburn, Calif.). The elution program for all trials utilized the following method. The column was pre-equilibrated with equilibration buffer (as above). 1 ml of sample was injected and allowed sufficient time to flowthrough the column using equilibration buffer. The column was then washed with step elutions of 1M NaCl and 3M NaCl in equilibration buffer. The column was exposed to equilibration buffer with 0.1M NaCl. Any remaining protein was eluted with elution buffer (2% by volume glacial acetic acid in water).
(§2) A Gilson FC204 fraction collector at the HPLC outlet collected individual eluates for further analysis. Fractions collected from the 2% acetic acid eluates were neutralized with 2M Tris, pH 10.5 to bring the pH to neutrality. The protein samples were reconstituted in equilibration buffer unless otherwise stated. The samples were analyzed by the integration of the absorbance at 280 nm or by immunonephelometry. The specific method of determination is presented for each figure.
Tables 2 and 3 present the elution profiles for 19 sequences based on the injection of 1 mg AlPI in equilibration buffer at 4° C. and 20° C., respectively. The columns were run at a constant flow rate of865 μl/min (413 cm/hr) or 523 μl/min (250 cm/hr). No dependence of the elution profile with flow rate was found. The Percent AlPI Eluted by Fraction represents the amount eluted in the flowthrough, 1M NaCl wash, and 2% acetic acid fractions relative to the total AlPI eluted. The percentages are based on either the integration of the peak areas at […]

A1PI [2] = target: T1, A1PI; experiment: A1PI purification from 5 mg hSA + 1 mg A1PI on peptide column, A1PI mass balance; assay type: binding; conditions: A1PI, 5 mg hSA + 1 mg A1PI, 20° C.
Experimental: as §1, §2
Columns were assayed with a mixture of 5 mg human serum albumin (hSA)+1 mg AlPI at 4° C. (Table 4, Seq. ID 1-11, 15, 17) and 20° C. (Table 5, Seq. ID 1-10, 13, 15, 17). The chromatography method was modified to provide for a 10 minute residence time of sample in the column by decreasing the flow to 17 μl/min (10 cm/hr) upon injection. Following the incubation, the flow was set at 865 μl/min (413 cm/hr) for the step elutions of 1M NaCl, 3M NaCl, and 2% acetic acid. The mass balances presented are based upon immunonephelometry. The Percent Eluted value is protein-specific and based on the amount of the protein eluted in a […]

T1 sequence (P01009 25-418): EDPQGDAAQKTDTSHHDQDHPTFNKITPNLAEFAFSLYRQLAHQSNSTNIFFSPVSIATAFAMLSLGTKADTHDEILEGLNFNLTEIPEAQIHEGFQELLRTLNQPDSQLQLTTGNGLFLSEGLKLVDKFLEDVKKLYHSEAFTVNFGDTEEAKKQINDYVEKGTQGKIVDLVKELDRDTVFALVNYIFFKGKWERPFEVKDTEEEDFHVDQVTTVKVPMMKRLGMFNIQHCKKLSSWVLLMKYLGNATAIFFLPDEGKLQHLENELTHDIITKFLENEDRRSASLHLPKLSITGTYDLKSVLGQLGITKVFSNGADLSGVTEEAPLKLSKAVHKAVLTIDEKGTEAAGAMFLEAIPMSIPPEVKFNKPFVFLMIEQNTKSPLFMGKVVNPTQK

Substance: V I F L Y R: point mutation of VIFLVR, position 5 (VIFLYR)
% of Total A1PI Eluted by Fraction (Based on Absorbance at 280 nm), 1M NaCl (A1PI [1]; VIFLVR point mutations, 4° C.): 4%
% of Total A1PI Eluted by Fraction (Based on Absorbance at 280 nm), 2% Acetic Acid (A1PI [1]; VIFLVR point mutations, 4° C.): 40%
% of Total A1PI Eluted by Fraction (Based on Absorbance at 280 nm), Flowthrough (A1PI [1]; VIFLVR point mutations, 4° C.): 56%
% of Total A1PI Eluted by Fraction (Based on Absorbance at 280 nm), 1M NaCl (A1PI [1]; VIFLVR point mutations, 20° C.): 3%
% of Total A1PI Eluted by Fraction (Based on Absorbance at 280 nm), 2% Acetic Acid (A1PI [1]; VIFLVR point mutations, 20° C.): 20%
% of Total A1PI Eluted by Fraction (Based on Absorbance at 280 nm), Flowthrough (A1PI [1]; VIFLVR point mutations, 20° C.): 77%

Substance: V K F L V R: point mutation of VIFLVR, position 2 (VKFLVR)
% of Total A1PI Eluted by Fraction (Based on Absorbance at 280 nm), 1M NaCl (A1PI [1]; VIFLVR point mutations, 4° C.): 66%
% of Total A1PI Eluted by Fraction (Based on Absorbance at 280 nm), 2% Acetic Acid (A1PI [1]; VIFLVR point mutations, 4° C.): 34%
% of Total A1PI Eluted by Fraction (Based on Absorbance at 280 nm), Flowthrough (A1PI [1]; VIFLVR point mutations, 4° C.): 0%
% of Total A1PI Eluted by Fraction (Based on Absorbance at 280 nm), 1M NaCl (A1PI [1]; VIFLVR point mutations, 20° C.): 49%
% of Total A1PI Eluted by Fraction (Based on Absorbance at 280 nm), 2% Acetic Acid (A1PI [1]; VIFLVR point mutations, 20° C.): 51%
% of Total A1PI Eluted by Fraction (Based on Absorbance at 280 nm), Flowthrough (A1PI [1]; VIFLVR point mutations, 20° C.): 0%

Substance: V R F L V R: point mutation of VIFLVR, position 2 (VRFLVR)
% of Total A1PI Eluted by Fraction (Based on Absorbance at 280 nm), 1M NaCl (A1PI [1]; VIFLVR point mutations, 4° C.): 39%
% of Total A1PI Eluted by Fraction (Based on Absorbance at 280 nm), 2% Acetic Acid (A1PI [1]; VIFLVR point mutations, 4° C.): 61%
% of Total A1PI Eluted by Fraction (Based on Absorbance at 280 nm), Flowthrough (A1PI [1]; VIFLVR point mutations, 4° C.): 0%

Substance: WSSKRY
Percent A1PI Eluted by Fraction Based on Absorbance at 280 nm, 1M NaCl (A1PI [1]; 4° C.): 91%
Percent A1PI Eluted by Fraction Based on Absorbance at 280 nm, 2% Acetic Acid (A1PI [1]; 4° C.): 9%
Percent A1PI Eluted by Fraction Based on Absorbance at 280 nm, Flowthrough (A1PI [1]; 4° C.): 0%
Percent A1PI Eluted by Fraction, 1M NaCl (A1PI [1]; 20° C.): 97%
Percent A1PI Eluted by Fraction, 2% Acetic Acid (A1PI [1]; 20° C.): 3%
Percent A1PI Eluted by Fraction, Flowthrough (A1PI [1]; 20° C.): 0%

The next lines start with the values.

% of Total A1PI Eluted by Fraction (Based on Absorbance at 280 nm), 1M NaCl (A1PI [1]; VIFLVR point mutations, 4° C.): 3%
% of Total A1PI Eluted by Fraction (Based on Absorbance at 280 nm), 2% Acetic Acid (A1PI [1]; VIFLVR point mutations, 4° C.): 56%
% of Total A1PI Eluted by Fraction (Based on Absorbance at 280 nm), Flowthrough (A1PI [1]; VIFLVR point mutations, 4° C.): 40%
Substance: V I F L F R: point mutation of VIFLVR, position 5 (VIFLFR)

% of Total A1PI Eluted by Fraction (Based on Absorbance at 280 nm), 1M NaCl (A1PI [1]; Trp position mutations, 4° C.): 90%
% of Total A1PI Eluted by Fraction (Based on Absorbance at 280 nm), 2% Acetic Acid (A1PI [1]; Trp position mutations, 4° C.): 10%
% of Total A1PI Eluted by Fraction (Based on Absorbance at 280 nm), Flowthrough (A1PI [1]; Trp position mutations, 4° C.): 0%
% of Total A1PI Eluted by Fraction (Based on Absorbance at 280 nm), 1M NaCl (A1PI [1]; Trp position mutations, 20° C.): 45%
% of Total A1PI Eluted by Fraction (Based on Absorbance at 280 nm), 2% Acetic Acid (A1PI [1]; Trp position mutations, 20° C.): 55%
% of Total A1PI Eluted by Fraction (Based on Absorbance at 280 nm), Flowthrough (A1PI [1]; Trp position mutations, 20° C.): 0%
Substance: V I R L V R: VIWLVR with Trp at position 3 replaced by Arg (VIRLVR)

binding of AlPI (in words) (A1PI [1]): little binding of AlPI
% of Total A1PI Eluted by Fraction (Based on Absorbance at 280 nm), 1M NaCl (A1PI [1]; VIFLVR point mutations, 4° C.): 2%
% of Total A1PI Eluted by Fraction (Based on Absorbance at 280 nm), 2% Acetic Acid (A1PI [1]; VIFLVR point mutations, 4° C.): 21%
% of Total A1PI Eluted by Fraction (Based on Absorbance at 280 nm), Flowthrough (A1PI [1]; VIFLVR point mutations, 4° C.): 77%
% of Total A1PI Eluted by Fraction (Based on Absorbance at 280 nm), 1M NaCl (A1PI [1]; VIFLVR point mutations, 20° C.): 0%
% of Total A1PI Eluted by Fraction (Based on Absorbance at 280 nm), 2% Acetic Acid (A1PI [1]; VIFLVR point mutations, 20° C.): 8%
% of Total A1PI Eluted by Fraction (Based on Absorbance at 280 nm), Flowthrough (A1PI [1]; VIFLVR point mutations, 20° C.): 92%
Substance: VIFLVA: point mutation of VIFLVR, position 6, C-terminal Arg replaced with Ala

Mass Protein per Eluate Fraction, 1M NaCl (A1PI [2]; * Below detection limit): 0.80 mg
Mass Protein per Eluate Fraction, Flow (A1PI [2]; * Below detection limit): 0.02 mg
Percent Eluted by Fraction, 1M NaCl (A1PI [2]; relative to total eluted): 97%
Percent Eluted by Fraction, 2% Ac. Acid (A1PI [2]; relative to total eluted): 0%
Percent Eluted by Fraction, 3M NaCl (A1PI [2]; relative to total eluted): 0%
Percent Eluted by Fraction, Flow (A1PI [2]; relative to total eluted): 3%
Percent A1PI Eluted by Fraction Based on Absorbance at 280 nm, 1M NaCl (A1PI [1]; 4° C.): 100%
Percent A1PI Eluted by Fraction Based on Absorbance at 280 nm, 2% Acetic Acid (A1PI [1]; 4° C.): 0%
Percent A1PI Eluted by Fraction Based on Absorbance at 280 nm, Flowthrough (A1PI [1]; 4° C.): 0%
Percent A1PI Eluted by Fraction, 1M NaCl (A1PI [1]; 20° C.): 91%
Percent A1PI Eluted by Fraction, 2% Acetic Acid (A1PI [1]; 20° C.): 2%
Percent A1PI Eluted by Fraction, Flowthrough (A1PI [1]; 20° C.): 7%
Substance: WIKWTK
